The values below come from patent publication US20170066831A1 (Janssen / Centocor, published 2017).

The target in assay [1] is T1, human ST2L, full length, on cells (human, UniProt Q01638 19-556).
T1 sequence: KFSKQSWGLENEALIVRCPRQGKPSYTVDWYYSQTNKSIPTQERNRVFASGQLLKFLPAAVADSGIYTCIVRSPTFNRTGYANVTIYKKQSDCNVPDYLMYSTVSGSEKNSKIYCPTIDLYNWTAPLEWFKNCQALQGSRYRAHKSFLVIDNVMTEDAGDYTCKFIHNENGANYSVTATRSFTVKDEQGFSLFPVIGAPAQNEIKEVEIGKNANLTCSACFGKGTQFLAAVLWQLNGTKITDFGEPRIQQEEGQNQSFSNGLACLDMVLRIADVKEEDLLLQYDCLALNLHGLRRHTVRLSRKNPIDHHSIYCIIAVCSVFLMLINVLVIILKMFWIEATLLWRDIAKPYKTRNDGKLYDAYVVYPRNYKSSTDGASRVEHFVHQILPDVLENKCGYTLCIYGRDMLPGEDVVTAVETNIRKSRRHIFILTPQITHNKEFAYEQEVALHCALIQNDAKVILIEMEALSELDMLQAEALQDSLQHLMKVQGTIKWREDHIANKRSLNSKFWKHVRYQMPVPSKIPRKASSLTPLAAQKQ
Kind of assay: cell-based or functional assay.

Assay [2] addresses T2, human ST2L extracellular domain with C-terminal His6 tag (human, UniProt Q01638 19-328).
T2 construct: also called huST2L-ECD; ST2L-ECD
T2 sequence: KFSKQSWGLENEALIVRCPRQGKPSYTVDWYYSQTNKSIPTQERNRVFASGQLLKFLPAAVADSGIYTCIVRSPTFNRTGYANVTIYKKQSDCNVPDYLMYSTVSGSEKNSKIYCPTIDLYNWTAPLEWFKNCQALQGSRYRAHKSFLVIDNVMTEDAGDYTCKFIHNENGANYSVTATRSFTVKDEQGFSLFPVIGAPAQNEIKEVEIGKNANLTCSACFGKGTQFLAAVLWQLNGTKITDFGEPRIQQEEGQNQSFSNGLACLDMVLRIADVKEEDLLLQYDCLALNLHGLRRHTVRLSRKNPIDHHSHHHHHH
Kind of assay: SPR, mAb captured, ST2L-ECD in solution. Background: SPR reads the build-up and loss of mass on a sensor chip optically.

Assay [3] has as its target T3, cynomolgus (Macaca fascicularis) ST2L extracellular domain with C-terminal His6 tag (Macaca fascicularis (cynomolgus), UniProt Q01638 19-321 (human entry)).
T3 construct: also called cyno ST2L-ECD; cynoST2L-ECD
T3 chain: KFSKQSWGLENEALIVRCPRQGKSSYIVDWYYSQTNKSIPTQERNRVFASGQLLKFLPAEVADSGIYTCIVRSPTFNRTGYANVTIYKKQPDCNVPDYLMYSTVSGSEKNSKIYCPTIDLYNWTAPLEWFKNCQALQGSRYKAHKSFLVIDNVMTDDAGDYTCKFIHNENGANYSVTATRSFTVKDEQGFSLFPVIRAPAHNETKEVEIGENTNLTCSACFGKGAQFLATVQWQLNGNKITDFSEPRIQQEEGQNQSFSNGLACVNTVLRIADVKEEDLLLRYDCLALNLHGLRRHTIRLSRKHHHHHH
Kind of assay: SPR, mAb captured, ST2L-ECD in solution.

The target of assay [4] is T2, human ST2L extracellular domain with …. Kind of assay: RLB ELISA: biotinylated IL-33 on coated huST2L-ECD, antibody titrated. On the procedure:
96-well plate was coated with 50 μl of 4 μg/ml human ST2L-ECD (amino acids 19-328 of SEQ ID NO: 1) or 2 μg/ml cyno ST2L-ECD (amino acids 19-321 of SEQ ID NO: 2) having C-terminal His₆ tag in bicarbonate buffer at 4° C. for 16 hrs. All subsequent steps were performed at room temperature. Plate was blocked with 200 μl blocking buffer, and was washed 3 times with 300 μl of wash buffer containing PBS+0.05% Tween. 30 μl of various dilutions of anti-ST2L mAbs were added to the wells and incubated for 1 hour. For human receptor-ligand binding assay 20 μl of biotinylated human IL-33 (residues 112-270 of SEQ ID NO: 3) was added at 100 ng/ml final concentration and incubated for 30 minutes. For cyno receptor-ligand binding assay 20 μl of biotinylated cyno IL-33 (residues 112-269 of SEQ ID NO: 4) was added at 200 ng/ml final concentration and incubated for 30 minutes. The plate was washed 3 times with 300 μl of wash buffer. 50 μl of 0.2 μg/ml Streptavidin-HRP (Jackson Immunoresearch) was added and incubated for 30 min. The plate was washed 3 times with 300 μl of wash buffer containing PBS+0.05% Tween. 50 μl of TMB substrate (EMD Biosciences) was added to each well. Reaction was stopped by the addition of 100 μl of 0.2N Sulfuric Acid. OD450 were measured using Envision plate reader (Perkin Elmer).

B1: STLM214 (antibody, V domains shown)
VH: EVQLLESGGGLVQPGGSLRLSCAASGFTFSSYDMFWVRQAPGKGLEWVSDIKGEGGRTAYADSVKGRFTISRDNSKNTLYLQMNSLRAEDTAVYYCARDPWSTEGSFFVLDYWGQGTLVTVSS
VL: EIVLTQSPATLSLSPGERATLSCRASQSVDDDLAWYQQKPGQAPRLLIYDASNRATGIPARFSGSGSGTDFTLTISSLEPEDFAVYYCQQYIDAPLTFGQGTKVEIK
notes: frameworks VH3-23 / Vk-L6
Take B1: the “RGA IC50” value in assay [1] is 2.52 µg/mL. In assay [2], this molecule returned a dissociation constant (Kd) of 33 pM, a koff of 0.000299 s⁻¹ and a kon of 9.16e+06 M⁻¹ s⁻¹. Further, in assay [3], the Kd amounted to 37 pM, the koff amounted to 0.000264 s⁻¹ and the kon worked out at 7.2e+06 M⁻¹ s⁻¹. In assay [4], this molecule returned a concentration for half-maximal inhibition (IC50) of 0.28 µg/mL.

B2: STLM211 (antibody, V domains shown)
VH: EVQLLESGGGLVQPGGSLRLSCAASGFTFSGYAMIWVRQAPGKGLEWVSYIEGEGGETYYADSVKGRFTISRDNSKNTLYLQMNSLRAEDTAVYYCARDPWSTEGSFFVLDYWGQGTLVTVSS
VL: EIVLTQSPATLSLSPGERATLSCRASQSVDDDLAWYQQKPGQAPRLLIYDASNRATGIPARFSGSGSGTDFTLTISSLEPEDFAVYYCQQYNDAITFGQGTKVEIK
notes: frameworks VH3-23 / Vk-L6
Regarding B2, the “RGA IC50” value in assay [1] stood at 2.52 µg/mL. In assay [2], this molecule registered a Kd of 29 pM, a dissociation rate constant (koff) of 0.000483 s⁻¹ and a kon of 1.7e+07 M⁻¹ s⁻¹. In assay [3], this molecule displayed a Kd of 14 pM, a koff of 0.00139 s⁻¹ and a kon of 1e+08 M⁻¹ s⁻¹. Moreover, the IC50 in assay [4] is 0.28 µg/mL.

B3: STLM216 (antibody, V domains shown)
VH: EVQLLESGGGLVQPGGSLRLSCAASGFTFSSYDMFWVRQAPGKGLEWVSDIKGEGGATNYADSVKGRFTISRDNSKNTLYLQMNSLRAEDTAVYYCARDPWSTEGSFFVLDYWGQGTLVTVSS
VL: EIVLTQSPATLSLSPGERATLSCRASQSVDDDLAWYQQKPGQAPRLLIYDASNRATGIPARFSGSGSGTDFTLTISSLEPEDFAVYYCQQYIGAPITFGQGTKVEIK
notes: frameworks VH3-23 / Vk-L6
On to B3, for which, in assay [1], the “RGA IC50” value stood at 1.86 µg/mL. In assay [2], binding was characterised by a dissociation constant (Kd) of 16 pM, the koff came to 0.000158 s⁻¹ and the kon is 9.63e+06 M⁻¹ s⁻¹. In addition, in assay [3], the Kd was 3 pM, the koff was determined as 0.000264 s⁻¹ and the association rate constant (kon) was determined as 7.89e+07 M⁻¹ s⁻¹. In assay [4], this molecule gave an IC50 of 0.3 µg/mL.

B4: STLM222 (antibody, V domains shown)
VH: EVQLLESGGGLVQPGGSLRLSCAASGFTFSIYSMFWVRQAPGKGLEWVSDIGGEGGGTSYADSVKGRFTISRDNSKNTLYLQMNSLRAEDTAVYYCARDPWSTEGSFFVLDYWGQGTLVTVSS
VL: EIVLTQSPATLSLSPGERATLSCRASQSVDDDLAWYQQKPGQAPRLLIYDASNRATGIPARFSGSGSGTDFTLTISSLEPEDFAVYYCQQYIGAPITFGQGTKVEIK
notes: frameworks VH3-23 / Vk-L6
As to B4, the “RGA IC50” value in assay [1] was determined as 1.88 µg/mL. In assay [2], this molecule gave a Kd of 37 pM, a koff of 0.000301 s⁻¹ and a kon of 8.22e+06 M⁻¹ s⁻¹. In assay [3], this molecule gave a dissociation constant (Kd) of 29 pM, a koff of 0.000345 s⁻¹ and a kon of 1.18e+07 M⁻¹ s⁻¹. In addition, the half-inhibitory concentration (IC50) in assay [4] was 0.25 µg/mL.

B5: STLM221 (antibody, V domains shown)
VH: EVQLLESGGGLVQPGGSLRLSCAASGFTFSIYDMFWVRQAPGKGLEWVSYIRGEGGDTNYADSVKGRFTISRDNSKNTLYLQMNSLRAEDTAVYYCARDPWSTEGSFFVLDYWGQGTLVTVSS
VL: EIVLTQSPATLSLSPGERATLSCRASQSVDDDLAWYQQKPGQAPRLLIYDASNRATGIPARFSGSGSGTDFTLTISSLEPEDFAVYYCQQYIGAPITFGQGTKVEIK
notes: frameworks VH3-23 / Vk-L6
As for B5, in assay [1], the “RGA IC50” value stood at 2.79 µg/mL. For the same molecule, in assay [2], the Kd was found to be 35 pM, the koff worked out at 9.61e-05 s⁻¹ and the association rate constant (kon) stood at 2.73e+06 M⁻¹ s⁻¹. In assay [3], this molecule yielded a Kd of 22 pM, a koff of 0.00013 s⁻¹ and a kon of 6.04e+06 M⁻¹ s⁻¹. It took 0.39 µg/mL to reach half-maximal inhibition in assay [4] (IC50).

B6: STLM217 (antibody, V domains shown)
VH: EVQLLESGGGLVQPGGSLRLSCAASGFTFSVYDMFWVRQAPGKGLEWVSDIKGEGGETSYADSVKGRFTISRDNSKNTLYLQMNSLRAEDTAVYYCARDPWSTEGSFFVLDYWGQGTLVTVSS
VL: EIVLTQSPATLSLSPGERATLSCRASQSVDDDLAWYQQKPGQAPRLLIYDASNRATGIPARFSGSGSGTDFTLTISSLEPEDFAVYYCQQYIGAPITFGQGTKVEIK
notes: frameworks VH3-23 / Vk-L6
Consider B6, for which the “RGA IC50” value in assay [1] came out at 1.69 µg/mL. In assay [2], this molecule showed a Kd of 17 pM, a koff of 0.000126 s⁻¹ and a kon of 7.27e+06 M⁻¹ s⁻¹. In assay [3], this molecule displayed a Kd of 4 pM, a koff of 0.000138 s⁻¹ and a kon of 3.81e+07 M⁻¹ s⁻¹. This molecule displayed an IC50 in assay [4] of 0.49 µg/mL.

B7: STLM215 (antibody, V domains shown)
VH: EVQLLESGGGLVQPGGSLRLSCAASGFTFSSYDMFWVRQAPGKGLEWVSAIAGEGGRTYYADSVKGRFTISRDNSKNTLYLQMNSLRAEDTAVYYCARDPWSTEGSFFVLDYWGQGTLVTVSS
VL: EIVLTQSPATLSLSPGERATLSCRASQSVDDDLAWYQQKPGQAPRLLIYDASNRATGIPARFSGSGSGTDFTLTISSLEPEDFAVYYCQQYIGAPITFGQGTKVEIK
notes: frameworks VH3-23 / Vk-L6
For the molecule B7, the “RGA IC50” value in assay [1] came out at 1.3 µg/mL. In assay [2], binding was characterised by a dissociation constant (Kd) of 25 pM, the koff amounted to 0.000172 s⁻¹ and the on-rate (kon) came out at 6.91e+06 M⁻¹ s⁻¹. In assay [3], this molecule showed a Kd of 10 pM, a koff of 0.000369 s⁻¹ and a kon of 3.54e+07 M⁻¹ s⁻¹. For the same molecule, the IC50 in assay [4] was found to be 0.29 µg/mL.

B8: STLM218 (antibody, V domains shown)
VH: EVQLLESGGGLVQPGGSLRLSCAASGFTFSVDSMFWVRQAPGKGLEWVSSIEGNGGATYYADSVKGRFTISRDNSKNTLYLQMNSLRAEDTAVYYCARDPWSTEGSFFVLDYWGQGTLVTVSS
VL: EIVLTQSPATLSLSPGERATLSCRASQSVDDDLAWYQQKPGQAPRLLIYDASNRATGIPARFSGSGSGTDFTLTISSLEPEDFAVYYCQQYIGAPITFGQGTKVEIK
notes: frameworks VH3-23 / Vk-L6
For B8, the “RGA IC50” value in assay [1] turned out to be 1.33 µg/mL. In assay [2], the affinity, expressed as Kd, was 23 pM; the koff amounted to 0.000224 s⁻¹; the kon worked out at 9.89e+06 M⁻¹ s⁻¹. In assay [3], this molecule came in with a Kd of 18 pM, an off-rate (koff) of 0.000265 s⁻¹ and a kon of 1.45e+07 M⁻¹ s⁻¹. This molecule also showed an IC50 in assay [4] of 0.42 µg/mL.

B9: STLM219 (antibody, V domains shown)
VH: EVQLLESGGGLVQPGGSLRLSCAASGFTFSGYDMFWVRQAPGKGLEWVSDIGGEGGSTNYADSVKGRFTISRDNSKNTLYLQMNSLRAEDTAVYYCARDPWSTEGSFFVLDYWGQGTLVTVSS
VL: EIVLTQSPATLSLSPGERATLSCRASQSVDDDLAWYQQKPGQAPRLLIYDASNRATGIPARFSGSGSGTDFTLTISSLEPEDFAVYYCQQYIGAPITFGQGTKVEIK
notes: frameworks VH3-23 / Vk-L6
On to B9, for which, in assay [1], the “RGA IC50” value was found to be 3.16 µg/mL. Further, in assay [2], binding was put at a Kd of 27 pM, the koff worked out at 0.000201 s⁻¹ and the kon worked out at 7.54e+06 M⁻¹ s⁻¹. In assay [3], this molecule yielded a Kd of 22 pM, a koff of 0.00023 s⁻¹ and an association rate constant (kon) of 1.07e+07 M⁻¹ s⁻¹. Moreover, the IC50 in assay [4] was determined as 0.29 µg/mL.

What is called Kd is the equilibrium constant for the complex coming apart. Read a high Kd as weaker binding. What is called koff is a measure of how fast the partners let go of each other. By kon is commonly meant the rate constant with which the complex forms. A low value points to slower complex formation. In general, IC50 refers to the concentration that inhibits the measured activity by half.
